Measured values: publication PMC7019770

Target: Mab2-5G2, monoclonal anti-idiotypic antibody recognizing an antibody that specifically interacts with PRRSV glycoprotein 5 (GP5)
Experiment: ELISA
Conditions: chain shown with the change; Mab2-5G2 as plate-coating protein; anti-PRA rabbit serum for detection; parent: est. 1.6; read off a plot

| Binder | response [OD450] |
| --- | --- |
| PRA, C-terminal domain of MYH9 (recombinant, wild type) K1673A (protein) MRELEDTRASREEILAQAKENEAKLKSMEAEMIQLQEELAAAERAKRQAQQERDELADEIANSSGKGALALEEKRRLEARIAQLEEELEEEQGNTELVNDRLKKANLQIDQINTDLNLERSHAQKNENARQQLERQNKELKVKLQEMEGTVKSKYKASIAALEAKIAQLEEQLDNETKERQAACKQVRRAEKKLKDVLLQVDDERRNAEQYKDQADKASTRLKQLKRQLEEAEEEAQRANASRRKLQRELEDATETADAMNREVSSLKNKLRRGDLPFVVPRRMGRKGAGDCSDEEVDGKADGAEAKAAE | 0.4 |
| PRA, C-terminal domain of MYH9 (recombinant, wild type) I1683A (protein) MRELEDTRASREEILAQAKENEKKLKSMEAEMAQLQEELAAAERAKRQAQQERDELADEIANSSGKGALALEEKRRLEARIAQLEEELEEEQGNTELVNDRLKKANLQIDQINTDLNLERSHAQKNENARQQLERQNKELKVKLQEMEGTVKSKYKASIAALEAKIAQLEEQLDNETKERQAACKQVRRAEKKLKDVLLQVDDERRNAEQYKDQADKASTRLKQLKRQLEEAEEEAQRANASRRKLQRELEDATETADAMNREVSSLKNKLRRGDLPFVVPRRMGRKGAGDCSDEEVDGKADGAEAKAAE | 0.61 |
| PRA, C-terminal domain of MYH9 (recombinant, wild type) E1670A; K1673A; E1679A; I1683A (protein) MRELEDTRASREEILAQAKANEAKLKSMAAEMAQLQEELAAAERAKRQAQQERDELADEIANSSGKGALALEEKRRLEARIAQLEEELEEEQGNTELVNDRLKKANLQIDQINTDLNLERSHAQKNENARQQLERQNKELKVKLQEMEGTVKSKYKASIAALEAKIAQLEEQLDNETKERQAACKQVRRAEKKLKDVLLQVDDERRNAEQYKDQADKASTRLKQLKRQLEEAEEEAQRANASRRKLQRELEDATETADAMNREVSSLKNKLRRGDLPFVVPRRMGRKGAGDCSDEEVDGKADGAEAKAAE | 0.41 |
| PRA, C-terminal domain of MYH9 (recombinant, wild type) E1679A (protein) MRELEDTRASREEILAQAKENEKKLKSMAAEMIQLQEELAAAERAKRQAQQERDELADEIANSSGKGALALEEKRRLEARIAQLEEELEEEQGNTELVNDRLKKANLQIDQINTDLNLERSHAQKNENARQQLERQNKELKVKLQEMEGTVKSKYKASIAALEAKIAQLEEQLDNETKERQAACKQVRRAEKKLKDVLLQVDDERRNAEQYKDQADKASTRLKQLKRQLEEAEEEAQRANASRRKLQRELEDATETADAMNREVSSLKNKLRRGDLPFVVPRRMGRKGAGDCSDEEVDGKADGAEAKAAE | 0.36 |
| PRA, C-terminal domain of MYH9 (recombinant, wild type) E1670A (protein) MRELEDTRASREEILAQAKANEKKLKSMEAEMIQLQEELAAAERAKRQAQQERDELADEIANSSGKGALALEEKRRLEARIAQLEEELEEEQGNTELVNDRLKKANLQIDQINTDLNLERSHAQKNENARQQLERQNKELKVKLQEMEGTVKSKYKASIAALEAKIAQLEEQLDNETKERQAACKQVRRAEKKLKDVLLQVDDERRNAEQYKDQADKASTRLKQLKRQLEEAEEEAQRANASRRKLQRELEDATETADAMNREVSSLKNKLRRGDLPFVVPRRMGRKGAGDCSDEEVDGKADGAEAKAAE | 0.46 |
